{
  "source": "paper PMC4174439",
  "about": "(RNA, 2014)",
  "proteins": {"B1": {"name": "Cd-HfqHis6 (Clostridium difficile Hfq bearing a C-terminal His-tag) (natural protein, Clostridium difficile strain 630, UniProt Q187T2 1-86, looked up)", "chain": "MKNTVLNLQDLFLNNARKERIPVTIYLVNGVQVKGLVKGFDSYIILIEGDNRQQNMIYKHAVSTIQPGKYINLTNQNQNNNNNNNR"}},
  "molecular_target": "the molecule itself",
  "experiment": "SDS-PAGE",
  "data": [
    {"protein": "B1", "values": [
      {"measurement": "stoichiometry N", "value": 6}
    ]}
  ]
}
